The supplement of paper PMC12042874
± gives the uncertainty stated by the source.

Test: amyloid nucleation score (Sup35N fusion, yeast selection) (log enrichment); library NNK3; higher = more nucleation; inactive = no reads after selection
In short: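 The nucleation score equals the log enrichment of output over input reads from DiMSum, centred on the mode score of non-aggregating sequences. It was computed only for sequences with 100 or more input reads. The reads came from Illumina sequencing of plasmid inserts from psi-negative yeast expressing Sup35N fused to peptides of 20 random codons, induced with 100 μM copper sulfate for 24 hours and grown 7 days at 30°C without adenine and uracil.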

Substance | amyloid nucleation score
RLSMNLNTVHVKHKECVPYR | inactive
RLTGEMRRCVVHGKRSHRVF | inactive
RLYLVGYRLIRCRFGILGAC | inactive
RLYQFCFDENSIQLFIYP | 2.35 ± 0.069
RLYVPLLVDVLWEKCKHSNV | inactive
RMAEVFLLIDCNFFYFDRYM | 2.02 ± 0.092
RMDETWNITRKNWQDSY | inactive
RMDNCSGDI | inactive
RMESTYGYVLDVSIEVLWGI | inactive
RMFMWENEMDLSTSRVKGYG | inactive
RMFVI | inactive
RMHGETARWLGAQIWSDRSC | inactive
RMILTSQLLQKENGLSVTIN | 0.853 ± 0.2
RMIRNIFGSHAVLCFGCKC | 2.9 ± 0.068
RMLGLNQYCSMLICTIVNFS | 1.19 ± 0.11
RMNYNAYRIFLTPISDWCNL | inactive
RMVRRDRNKYSILLGLVMSN | inactive
RNATIALCAGWVIYDSVFKG | 2.27 ± 0.073
RNGDCLWIFR | 0.732 ± 0.28
RNHGGNDSDILRRSESMSDR | inactive
RNKSSNFREHPVTSRITCRS | inactive
RNLKN | inactive
RNLRYICRFALGGVARLWCG | 0.197 ± 0.55

Substance | amyloid nucleation score
RNLVWA | inactive
RNTDLL | inactive
RNVGKGNAVQSGPAWIERS | inactive
RPEAAYSVKYLVLV | inactive
RPFYLWNLNIICCPFIQTVK | 2.39 ± 0.072
RPTTIGINNDW | inactive
RPYHSEKYDKFVDAMSFWCW | inactive
RQCCCSLKHIVWQPLGLCRK | inactive
RQGCKVCRWLRSKSLLLRRM | inactive
RQGPIYPWVLC | inactive
RQGRYEHQRGPFSLVSQVG | -0.083 ± 1.1
RQIMGQKRKNRQESFGFVGC | inactive
RQSCGFILQWDKLCFSRDRT | 0.879 ± 0.25
RQVFNAIAFFVLHR | -0.299 ± 0.69
RRARFFVHAQVRWVCFWAMK | inactive
RRAYVKQGVEFRIWNCYYWL | 0.667 ± 0.16
RRCNVMLKNDLNCLPSSLFI | 0.322 ± 0.62
RRCPYIRESIYKFSLAKCSF | 0.014 ± 0.31
RREGGTPIAHPLLGPGP | -0.076 ± 0.73
RRFCRYVYEMG | inactive
RRHKLW | inactive
RRHLITSVHQTLIVVGFDPR | inactive
RRIFCLLVANDRLSMRVKCP | inactive

Substance | amyloid nucleation score
RRIPITFIACNCTRTCWQMI | 0.394 ± 0.23
RRKRSQSE | inactive
RRLCRYCDVILRNFMHKIQW | inactive
RRLPPIRCSHNLNSVPQD | inactive
RRLPSELYMSYHYHFFFKSG | inactive
RRLSM | inactive
RRMTSYFL | inactive
RRPLVWKFFQNLGTMN | inactive
RRPVRSSNGALTLICRDREF | inactive
RRSLHCIDCSRFPLIFHCTV | inactive
RRSSRSRRHAKRRRAIVRCG | inactive
RRSTQLKRQYKSL | inactive
RRTDGATEACISTSGPEYIV | inactive
RRVNFVNYSLWV | 1.6 ± 0.1
RRWCLVAIIPIELNAGTEQH | inactive
RRYSRIRYRRKLVNWLFYIM | inactive
RSCGVFHQRARVHCCIKSLP | inactive
RSCSLWVY | inactive
RSCYEVLRHGREL | inactive
RSDENWRMTYWRAGCRVLDV | inactive
RSDVYCWDNYRLEGSGQSSL | inactive
RSFHNHHWTVNY | 1.46 ± 0.11
RSFSNSDRMVSNLQFCYYFG | 2.77 ± 0.053

Substance | amyloid nucleation score
RSGFRLLIWYRKQMICLCNL | inactive
RSGKVSFFIGYNVVGLMRFR | inactive
RSIVNSRALGLAADRRLEFS | inactive
RSIYCLRVNTGYMNKFVVLR | inactive
RSLHWNLGLCIWYNEFRDLM | 1.8 ± 0.074
RSLSRNFSLCMGGSDRSGGL | inactive
RSMTWFSQDYVSVHRVL | inactive
RSPTVL | inactive
RSQEVKTVGSLWQFFVSVLG | inactive
RSRGWDWFEVSIIVRCSMWD | inactive
RSSDSDMSLECKAVE | inactive
RSSLLSRVLSEITHSWQLCA | inactive
RSSSIYYICFQTFTRCNYPV | inactive
RSTVHRYSCDNCVEVIISKQ | 1.18 ± 0.12
RSVTNGQSCLRTVGILSFLA | inactive
RSWQEMFCEWSSALDWDWSV | inactive
RSYLSEHSNYGAKSSYYGIF | inactive
RSYTDMCP | inactive
RTFRSFSQVYRPILRRGHSG | inactive
RTIYTLPSCEIEGDLWHLSG | inactive
RTLFYFLDDSQFVLV | inactive
RTLNYFSHVCQSSINWSSLV | 0.743 ± 0.16
RTLQVWHDWVVG | -0.555 ± 0.69

Substance | amyloid nucleation score
RTNDHVNW | inactive
RTRFQITCQEETTCPRFS | 0.92 ± 0.16
RTSLGSCKYHLVFFYRVLVW | inactive
RTSLNGTLGVLSRYGWNISE | inactive
RTSMPTTHGGLVLQSWDYRP | inactive
RTTVVYTLNLSGTNRRPCYN | 1.66 ± 0.084
RVFIDRDRP | inactive
RVITCWSQQCWHDRCLVCGK | inactive
RVKYL | inactive
RVLSCECKVGRKWICTELFV | inactive
RVLVWTFYEKAKNCAFCRGV | inactive
RVLYGTICIFVGYFLVMSCV | -0.21 ± 0.57
RVLYPVKVYRNDKMADWNN | inactive
RVMRSDDVWMCSSLHDFCAV | inactive
RVNNGT | inactive
RVPGVCVYLCNEVACSTLCI | 2.03 ± 0.079
RVPYFYFPPLR | inactive
RVREPSVAVRECWCYLGDAV | inactive
RVVGRRSNYFVFLFRTLGRN | inactive
RVYHLIWFFYYLYNGHFISS | inactive
RWLPMSNVAGGQKRKMLASL | inactive
RWNLDWSSLSAGHGKYSQEY | inactive
RWNSISI | inactive

Substance | amyloid nucleation score
RWSVCSCYSWERSGSRSQ | inactive
RYADHAYLVPKFGQTEQENV | inactive
RYDCRQPIAEFVVWAV | inactive
RYDLCLDLALLRGNWWDLYL | inactive
RYDMRVNVVFTCPWRDSNND | 0.894 ± 0.28
RYDYFLFLIFSFLCTVDPMV | -0.211 ± 0.31
RYGFDRIPIFLLNVAMNVYP | 0.535 ± 0.58
RYIFNQANSMVQYRFVYDVR | 1.72 ± 0.069
RYLDCFVVVLVSDFMLRYVS | inactive
RYLIVVFASC | inactive
RYLWVLNRIGPVWCSGFRVW | inactive
RYMFWQWRGEL | 0.958 ± 0.17
RYNGSTTGSRLYMLLSMSLN | inactive
RYNLSFFLYFSQANNHQNLF | inactive
RYRIPTSFL | inactive
RYRLKM | inactive
RYRLSMELT | inactive
RYSGANVDNYVN | inactive
RYSLCCYGGFFRYSRDFMRR | 1.14 ± 0.14
RYTFVGT | -0.408 ± 0.68
RYTIGFHLSMDSAYSISFYP | inactive
RYYLFLVPSGVWGYVVLRDS | 0.656 ± 0.21
SACVGFMGPRNIRL | inactive

Substance | amyloid nucleation score
SADITSTLGRYAFYF | inactive
SAFCCRSMSGVEFLRAFVSK | inactive
SAGDTDRRPVFH | -0.058 ± 1
SAGTLGGYDFVYVAVDSLHR | inactive
SALEKVDGATSIEVLPTNRR | inactive
SALKGLTRELSVRVY | inactive
SALLQAIF | inactive
SAMCICLICALGVCPTMDGA | 2.5 ± 0.073
SARGCTNSSSNGLGRGHQTG | inactive
SAWLATGTYEVKAQRG | inactive
SAYKKASVWGLRLQSSRS | inactive
SAYVYTD | -0.156 ± 0.66
SCEDLWNNMIAWMFATSRR | 1.26 ± 0.1
SCILHYSDYATWLGRYVKVI | inactive
SCLRHPSTSSQNKSCLPDIP | inactive
SCMVNMSPVGWDSAGGEQGV | inactive
SCNRSSSV | inactive
SCPLR | inactive
SCRDDLLVMSKVTLITMT | inactive
SCSLCWPIHRDFHMCTSSVC | inactive
SCSSCYIELKWLYLRILLDC | inactive
